From paper PMC4879523

Experiments:
[1] = biological target: α subunit of the chimeric Gi protein fused to TagRFP; experiment: FRET or BRET; sensitized-emission FRET in live HeLa cells 2 days after co-transfection; donor EGFP at the C-terminus of LANCL2 forms, acceptor TagRFP at the N-terminus of the chimeric Gi α subunit; apparent FRET efficiency in plasmamembrane or whole-cell ROIs
[2] = biological target: α subunit of the chimeric Gi protein fused to TagRFP

[cAMP]i in HeLa cells overexpressing LANCL2-GFP, 30 s after 5 μM ABA, over basal, unstimulated values [2]: 170%
B1: LANCL2 fused to EGFP (receptor)
chain: MGETMSKRLKLHLGGEAEMEERAFVNPFPDYEAAAGALLASGAAEETGCVRPPATTDEPGLPFHQDGKIIHNFIRRIQTKIKDLLQQMEEGLKTADPHDCSAYTGWTGIALLYLQLYRVTCDQTYLLRSLDYVKRTLRNLNGRRVTFLCGDAGPLAVGAVIYHKLRSDCESQECVTKLLQLQRSVVCQESDLPDELLYGRAGYLYALLYLNTEIGPGTVCESAIKEVVNAIIESGKTLSREERKTERCPLLYQWHRKQYVGAAHGMAGIYYMLMQPAAKVDQETLTEMVKPSIDYVRHKKFRSGNYPSSLSNETDRLVHWCHGAPGVIHMLMQAYKVFKEEKYLKEAMECSDVIWQRGLLRKGYGICHGTAGNGYSFLSLYRLTQDKKYLYRACKFAEWCLDYGAHGCRIPDRPYSLFEGMAGAIHFLSDVLGPETSRFPAFELDSSKRD
modifications: N-terminal glycine myristoylation
apparent FRET efficiency (plasmamembrane ROIs) [1]: 20%
apparent FRET efficiency (whole-cell regions) [1]: 20%
